B1: target 1 G12U,G13C (mixed)
RNA 1: CACCCGUGCAAAAAUGCAGGGGUCUAAAACUGAGCGGAUAACCUCUCUAUGG
RNA 2: GGGAAUGGAUCCACAUCUACGAAUUCGUACCAUAGAGACUUUAUCCGCUCACCGAGAUCGGAAGAGCACACGU
B2: target 1 insC 3' of 18,insG 3' of 6 (mixed)
RNA 1: CACCCGUGCAAAAAUGCAGGGGUCUAAAACUGAGCGGAUAACCUCUCUAUGG
RNA 2: GGGAAUGGAUCCACAUCUACGAAUUCGUACCAUACGAGAGGUUAUCCGGCUCACCGAGAUCGGAAGAGCACACGU
B3: target 1 C4G,U19A (mixed)
RNA 1: CACCCGUGCAAAAAUGCAGGGGUCUAAAACUGAGCGGAUAACCUCUCUAUGG
RNA 2: GGGAAUGGAUCCACAUCUACGAAUUCGUACCAAAGAGAGGUUAUCCGGUCACCGAGAUCGGAAGAGCACACGU
B4: target 1 A1C,U8G (mixed)
RNA 1: CACCCGUGCAAAAAUGCAGGGGUCUAAAACUGAGCGGAUAACCUCUCUAUGG
RNA 2: GGGAAUGGAUCCACAUCUACGAAUUCGUACCAUAGAGAGGUUAGCCGCUCCCCGAGAUCGGAAGAGCACACGU
B5: target 1 C2A,A20U (mixed)
RNA 1: CACCCGUGCAAAAAUGCAGGGGUCUAAAACUGAGCGGAUAACCUCUCUAUGG
RNA 2: GGGAAUGGAUCCACAUCUACGAAUUCGUACCUUAGAGAGGUUAUCCGCUAACCGAGAUCGGAAGAGCACACGU
B6: target 1 insG 3' of 11,insU 3' of 6 (mixed)
RNA 1: CACCCGUGCAAAAAUGCAGGGGUCUAAAACUGAGCGGAUAACCUCUCUAUGG
RNA 2: GGGAAUGGAUCCACAUCUACGAAUUCGUACCAUAGAGAGGUGUAUCCUGCUCACCGAGAUCGGAAGAGCACACGU
B7: target 1 insU 3' of 21,insG 3' of 20 (mixed)
RNA 1: CACCCGUGCAAAAAUGCAGGGGUCUAAAACUGAGCGGAUAACCUCUCUAUGG
RNA 2: GGGAAUGGAUCCACAUCUACGAAUUCGUACCUAGUAGAGAGGUUAUCCGCUCACCGAGAUCGGAAGAGCACACGU
B8: target 1 insU 3' of 4,insU 3' of 4 (mixed)
RNA 1: CACCCGUGCAAAAAUGCAGGGGUCUAAAACUGAGCGGAUAACCUCUCUAUGG
RNA 2: GGGAAUGGAUCCACAUCUACGAAUUCGUACCAUAGAGAGGUUAUCCGCUUUCACCGAGAUCGGAAGAGCACACGU
B9: target 1 U3C,U11C (mixed)
RNA 1: CACCCGUGCAAAAAUGCAGGGGUCUAAAACUGAGCGGAUAACCUCUCUAUGG
RNA 2: GGGAAUGGAUCCACAUCUACGAAUUCGUACCAUAGAGAGGCUAUCCGCCCACCGAGAUCGGAAGAGCACACGU
B10: target 1 insG 3' of 11,insA 3' of 5 (mixed)
RNA 1: CACCCGUGCAAAAAUGCAGGGGUCUAAAACUGAGCGGAUAACCUCUCUAUGG
RNA 2: GGGAAUGGAUCCACAUCUACGAAUUCGUACCAUAGAGAGGUGUAUCCGACUCACCGAGAUCGGAAGAGCACACGU
B11: target 1 C7A,A18U (mixed)
RNA 1: CACCCGUGCAAAAAUGCAGGGGUCUAAAACUGAGCGGAUAACCUCUCUAUGG
RNA 2: GGGAAUGGAUCCACAUCUACGAAUUCGUACCAUUGAGAGGUUAUACGCUCACCGAGAUCGGAAGAGCACACGU
B12: target 1 U10A,G17U (mixed)
RNA 1: CACCCGUGCAAAAAUGCAGGGGUCUAAAACUGAGCGGAUAACCUCUCUAUGG
RNA 2: GGGAAUGGAUCCACAUCUACGAAUUCGUACCAUAUAGAGGUAAUCCGCUCACCGAGAUCGGAAGAGCACACGU
B13: target 1 insC 3' of 15,insA 3' of 7 (mixed)
RNA 1: CACCCGUGCAAAAAUGCAGGGGUCUAAAACUGAGCGGAUAACCUCUCUAUGG
RNA 2: GGGAAUGGAUCCACAUCUACGAAUUCGUACCAUAGAGCAGGUUAUCACGCUCACCGAGAUCGGAAGAGCACACGU
B14: target 1 insU 3' of 17,insU 3' of 2 (mixed)
RNA 1: CACCCGUGCAAAAAUGCAGGGGUCUAAAACUGAGCGGAUAACCUCUCUAUGG
RNA 2: GGGAAUGGAUCCACAUCUACGAAUUCGUACCAUAGUAGAGGUUAUCCGCUCUACCGAGAUCGGAAGAGCACACGU
B15: target 1 insU 3' of 21,insA 3' of 12 (mixed)
RNA 1: CACCCGUGCAAAAAUGCAGGGGUCUAAAACUGAGCGGAUAACCUCUCUAUGG
RNA 2: GGGAAUGGAUCCACAUCUACGAAUUCGUACCUAUAGAGAGGAUUAUCCGCUCACCGAGAUCGGAAGAGCACACGU
B16: target 1 U11G,G15A (mixed)
RNA 1: CACCCGUGCAAAAAUGCAGGGGUCUAAAACUGAGCGGAUAACCUCUCUAUGG
RNA 2: GGGAAUGGAUCCACAUCUACGAAUUCGUACCAUAGAAAGGGUAUCCGCUCACCGAGAUCGGAAGAGCACACGU
B17: target 1 G5C,G17U (mixed)
RNA 1: CACCCGUGCAAAAAUGCAGGGGUCUAAAACUGAGCGGAUAACCUCUCUAUGG
RNA 2: GGGAAUGGAUCCACAUCUACGAAUUCGUACCAUAUAGAGGUUAUCCCCUCACCGAGAUCGGAAGAGCACACGU
B18: target 1 insA 3' of 8,insC 3' of 5 (mixed)
RNA 1: CACCCGUGCAAAAAUGCAGGGGUCUAAAACUGAGCGGAUAACCUCUCUAUGG
RNA 2: GGGAAUGGAUCCACAUCUACGAAUUCGUACCAUAGAGAGGUUAUACCGCCUCACCGAGAUCGGAAGAGCACACGU
B19: target 1 complement block 4-14 (mixed)
RNA 1: CACCCGUGCAAAAAUGCAGGGGUCUAAAACUGAGCGGAUAACCUCUCUAUGG
RNA 2: GGGAAUGGAUCCACAUCUACGAAUUCGUACCAUAGAGUCCAAUAGGCGUCACCGAGAUCGGAAGAGCACACGU
B20: target 1 A9G,U10A (mixed)
RNA 1: CACCCGUGCAAAAAUGCAGGGGUCUAAAACUGAGCGGAUAACCUCUCUAUGG
RNA 2: GGGAAUGGAUCCACAUCUACGAAUUCGUACCAUAGAGAGGUAGUCCGCUCACCGAGAUCGGAAGAGCACACGU
B21: target 1 insU 3' of 22,insU 3' of 20 (mixed)
RNA 1: CACCCGUGCAAAAAUGCAGGGGUCUAAAACUGAGCGGAUAACCUCUCUAUGG
RNA 2: GGGAAUGGAUCCACAUCUACGAAUUCGUACUCAUUAGAGAGGUUAUCCGCUCACCGAGAUCGGAAGAGCACACGU
B22: target 1 insA 3' of 19,insA 3' of 6 (mixed)
RNA 1: CACCCGUGCAAAAAUGCAGGGGUCUAAAACUGAGCGGAUAACCUCUCUAUGG
RNA 2: GGGAAUGGAUCCACAUCUACGAAUUCGUACCAUAAGAGAGGUUAUCCAGCUCACCGAGAUCGGAAGAGCACACGU
B23: target 1 insA 3' of 10,insA 3' of 10 (mixed)
RNA 1: CACCCGUGCAAAAAUGCAGGGGUCUAAAACUGAGCGGAUAACCUCUCUAUGG
RNA 2: GGGAAUGGAUCCACAUCUACGAAUUCGUACCAUAGAGAGGUUAAAUCCGCUCACCGAGAUCGGAAGAGCACACGU
B24: target 1 insU 3' of 14,insC 3' of 9 (mixed)
RNA 1: CACCCGUGCAAAAAUGCAGGGGUCUAAAACUGAGCGGAUAACCUCUCUAUGG
RNA 2: GGGAAUGGAUCCACAUCUACGAAUUCGUACCAUAGAGAUGGUUACUCCGCUCACCGAGAUCGGAAGAGCACACGU
B25: target 1 U8C,U10G (mixed)
RNA 1: CACCCGUGCAAAAAUGCAGGGGUCUAAAACUGAGCGGAUAACCUCUCUAUGG
RNA 2: GGGAAUGGAUCCACAUCUACGAAUUCGUACCAUAGAGAGGUGACCCGCUCACCGAGAUCGGAAGAGCACACGU
B26: target 1 insG 3' of 9,insG 3' of 6 (mixed)
RNA 1: CACCCGUGCAAAAAUGCAGGGGUCUAAAACUGAGCGGAUAACCUCUCUAUGG
RNA 2: GGGAAUGGAUCCACAUCUACGAAUUCGUACCAUAGAGAGGUUAGUCCGGCUCACCGAGAUCGGAAGAGCACACGU
B27: target 1 insG 3' of 3,insG 3' of 3 (mixed)
RNA 1: CACCCGUGCAAAAAUGCAGGGGUCUAAAACUGAGCGGAUAACCUCUCUAUGG
RNA 2: GGGAAUGGAUCCACAUCUACGAAUUCGUACCAUAGAGAGGUUAUCCGCUGGCACCGAGAUCGGAAGAGCACACGU

27 molecules from PMC10786891, “Massively parallel profiling of RNA-targeting CRISPR-Cas13d” can be followed below.

In the series the target is T1, EsCas13d, nuclease-dead (Eubacterium siraeum, UniProt B0MS50, R295A;H300A;R849A;H854A).
T1 sequence: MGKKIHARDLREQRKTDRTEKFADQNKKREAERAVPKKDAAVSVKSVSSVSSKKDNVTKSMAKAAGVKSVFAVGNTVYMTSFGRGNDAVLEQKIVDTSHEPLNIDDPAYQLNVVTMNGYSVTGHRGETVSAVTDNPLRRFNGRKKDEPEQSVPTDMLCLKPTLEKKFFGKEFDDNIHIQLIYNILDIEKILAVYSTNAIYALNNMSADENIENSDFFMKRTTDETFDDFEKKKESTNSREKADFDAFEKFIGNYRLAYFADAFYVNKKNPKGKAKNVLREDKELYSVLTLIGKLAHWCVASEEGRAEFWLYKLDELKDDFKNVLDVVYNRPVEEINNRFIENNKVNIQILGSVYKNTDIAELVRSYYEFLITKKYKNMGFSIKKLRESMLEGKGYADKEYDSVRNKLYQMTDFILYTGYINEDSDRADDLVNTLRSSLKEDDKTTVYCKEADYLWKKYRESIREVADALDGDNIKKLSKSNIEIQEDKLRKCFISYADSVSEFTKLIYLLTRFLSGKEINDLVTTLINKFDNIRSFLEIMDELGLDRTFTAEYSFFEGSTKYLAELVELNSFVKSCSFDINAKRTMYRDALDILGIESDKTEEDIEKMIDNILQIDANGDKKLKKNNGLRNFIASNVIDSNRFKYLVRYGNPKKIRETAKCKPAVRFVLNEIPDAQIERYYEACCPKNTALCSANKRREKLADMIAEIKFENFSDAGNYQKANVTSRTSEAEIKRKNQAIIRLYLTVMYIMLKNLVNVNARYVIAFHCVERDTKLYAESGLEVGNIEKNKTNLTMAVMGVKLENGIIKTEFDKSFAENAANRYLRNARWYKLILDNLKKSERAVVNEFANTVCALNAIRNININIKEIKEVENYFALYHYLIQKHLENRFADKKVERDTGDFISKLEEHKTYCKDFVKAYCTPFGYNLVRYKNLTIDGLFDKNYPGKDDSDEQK
In words: crRNA (strand 1, pre-loaded); Mg2+; 40 mM Tris-HCl pH 7.5, 150 mM NaCl, 6 mM MgCl2, 1 mM DTT, 0.1% Tween-20, 0.2 mg/ml BSA; 25 C; 10 min per concentration, then washed. The conditions noted are these: tags: His6-TwinStrep-SUMO cleaved; N-terminal SNAP kept (SNAP-Surface 488); label: 3' end held by stalled T7 RNA polymerase.
The molecule B1 came in with a Kd of 17.5 ± 1.3 nM.
The result for B2 reads 58 ± 10 nM; that for B3, 51 ± 18 nM; that for B4, 22.4 ± 1.7 nM.
With B5, binding was characterised by a dissociation constant (Kd) of 30.1 ± 1.5 nM.
For the molecule B6, binding was put at a Kd of 62 ± 8 nM.
For the molecule B7, binding was characterised by a dissociation constant (Kd) of 40 ± 11 nM.
B8 registered a Kd of 9.4 ± 0.5 nM.
Turning to B9, the affinity, expressed as Kd, was 51 ± 8 nM.
The result for B10 reads 26.5 ± 2.9 nM; that for B11, 36.4 ± 2.8 nM; that for B12, 37.2 ± 3.2 nM.
With B13, the affinity, expressed as Kd, was 12.6 ± 1 nM.
For the molecule B14, binding was put at a Kd of 15.1 ± 2.2 nM.
For the molecule B15, binding was put at a Kd of 63 ± 9 nM.
Molecule B16 displayed a Kd of 59 ± 7 nM.
The molecule B17 returned a dissociation constant Kd of 28.1 ± 2 nM.
B18 registered a Kd of 9.4 ± 0.6 nM.
Regarding B19, the Kd was 63 ± 31 nM.
In the case of B20, the Kd was found to be 15.5 ± 0.6 nM.
The result for B21 reads 63 ± 6 nM; that for B22, 23.2 ± 0.9 nM.
In turn, B23 displayed a Kd of 7.81 ± 0.3 nM.
Take B24: the Kd is 46 ± 4 nM.
In turn, B25 registered a Kd of 13.5 ± 0.9 nM.
Consider B26, for which the Kd is 11.2 ± 1.2 nM.
Consider B27, for which the Kd was 5.5 ± 0.5 nM.
